# Measured values: US9180187B2, “Medicament for treating and/or preventing cancer” (TORAY INDUSTRIES, INC., priority 2010, dated 2015)
# What was measured:
# Format in all cases: cell-based, human
# MNK45 = experiment: ADCC activity, chromium-51 release; conditions: gastric cancer cell line
# Description: (§1) The above-selected anti-CAPRIN-1 monoclonal antibodies #1 to #11 were evaluated for their cytotoxic activities against cancer cells (ADCC activity). Hybridomas producing the monoclonal antibodies #1 to #11 were each cultured using hybridoma SFM medium (Invitrogen). The thus obtained supernatant was purified using Hitrap ProteinA Sepharose FF (GE HealthCare), replaced with PBS(−), and then filtered through 0.22 μm filter (Millipore). The obtained filtrates were used as antibodies for assay. The human breast cancer cell line MDA-MB-157 (10^6 cells) was collected in a 50-ml centrifuge tube, to which 100 μCi chromium(Cr)-51 was then added, and incubated at 37° C. for 2 hours. Subsequently, the cells were washed 3 times with RPMI1640 medium containing 10% FBS, and then dispensed into each well of a 96-well V-bottom plate at 10^3 cells per well. The thus obtained cells are used as target cell. The above purified antibodies (1 μg each) were added to the cells. Separately, mouse lymphocytes separated from the mouse spleen were further added (2×10^5 cells) and then cultured under conditions of 37° C. and 5% CO2 for 4 hours. After culture, the amount of chromium(Cr)-51 released from cytotoxically impaired tumor cells in a culture supernatant was measured, so that the ADCC activity of each anti-CAPRIN-1 antibody against cancer cells was calculated. […] On the other hand, similar procedures were performed using the monoclonal antibodies (which were prepared in Example 2) reactive with the CAPRIN-1 protein itself, but not reactive with the surface of cancer cells, no cytotoxic activity was observed (see FIG. 1). […] Similarly, the anti-CAPRIN-1 antibodies were examined for ADCC activity against other human cancer cell lines including glioma cell lines (T98G and U373), lung cancer cell lines (A549 and QG56), renal cancer cell lines (Caki-1 and ACHN), a uterine cervix cancer cell line (SW756), a bladder cancer cell line (T24), an esophageal cancer cell line (KYSE180), gastric cancer cell lines (MNK28 and MNK45), a colorectal cancer cell line (SW480), a leukemia cell line (AML5), and a lymphoma cell line (Ramos).
# Caki-1 = experiment: ADCC activity, chromium-51 release; conditions: renal cancer cell line
# Description: as §1
# QG56 = experiment: ADCC activity, chromium-51 release; conditions: lung cancer cell line
# Description: as §1
# SW480 = experiment: ADCC activity, chromium-51 release; conditions: colorectal cancer cell line
# Description: as §1
# ACHN = experiment: ADCC activity, chromium-51 release; conditions: renal cancer cell line
# Description: as §1
# T24 = experiment: ADCC activity, chromium-51 release; conditions: bladder cancer cell line
# Description: as §1
# SW756 = experiment: ADCC activity, chromium-51 release; conditions: uterine cervix cancer cell line
# Description: as §1
# A549 = experiment: ADCC activity, chromium-51 release; conditions: lung cancer cell line
# Description: as §1
# KYSE180 = experiment: ADCC activity, chromium-51 release; conditions: esophageal cancer cell line
# Description: as §1
# Ramos = experiment: ADCC activity, chromium-51 release; conditions: lymphoma cell line
# Description: as §1
# AML5 = experiment: ADCC activity, chromium-51 release; conditions: leukemia cell line
# Description: as §1
# T98G = experiment: ADCC activity, chromium-51 release; conditions: glioma cell line
# Description: as §1
# MNK28 = experiment: ADCC activity, chromium-51 release; conditions: gastric cancer cell line
# Description: as §1
# U373 = experiment: ADCC activity, chromium-51 release; conditions: glioma cell line
# Description: as §1
# CAPRIN-1 protein = experiment: Flow cytometry: expression of CAPRIN-1 protein on the cell surface of MCF-7 treated with antitumor agents; conditions: 1 μg antibody
# Description: The cancer cell line MCF-7 was treated with each antitumor agent at a 50% inhibitory concentration which was calculated in (1) above, and the expression behavior of a CAPRIN-1 protein on the cell surface was examined.
# The expression behavior of the CAPRIN-1 protein on the surface of the above-treated MCF-7 human breast cancer cell was examined. The cell was prepared to a concentration of 1×10^5 cells/ml, and then cultured on a 6-well plate under conditions of 37° C. and 5% CO2 for 1 day. Next, the cell was treated with antitumor agents at the 50% inhibitory concentration calculated in (1) above, or with PBS(−) as a control, and then cultured under conditions of 37° C. and 5% CO2 for 2 days. […] After washing with PBS, fluorescence intensity was measured using a FACS caliber (Becton, Dickinson and Company). […] As a result, no significant difference in fluorescence intensity was observed regardless of treatment with an antitumor agent. Specifically, the fluorescence intensity obtained in the case of adding the anti-CAPRIN-1 antibody to MCF-7 not treated with any antitumor agent indicated 32% higher enhancement when compared with that in the case of adding the control antibody. […] Here, the percentage of enhancement in fluorescence intensity was represented by the percentage of increase in mean fluorescence intensity (MFI level) in each cell and calculated by the following formula. […]
molecule,measurement,setting,value
"monoclonal antibody #9: mouse anti-CAPRIN-1 monoclonal antibody; heavy chain variable region SEQ ID NO: 103, light chain variable region SEQ ID NO: 107 (antibody, listed as Mus musculus, V domains shown) VH: PRASLGVSETLLCTSGFTFTDYYMSWVRQPPGKALEWLGFIRNKANGYTTEYSASVKGRFTISRDNSQSILYLQMNTLRAEDSATYYCARANWAFDYWGQGTTVTVSSK VL: SGDRVSLSCRASQSISNYLHWYQQKSHESPRLLIKYASQSISGIPSRFSGSGSGTDFTLSINSVETEDFGMYFCQQSNSWPYTFGGGTKLEIKQ",ADCC activity against MNK45,MNK45,≥ 10%
same,ADCC activity against Caki-L,Caki-1,≥ 23%
same,ADCC activity against QG56,QG56,≥ 20%
same,ADCC activity against SW480,SW480,≥ 17%
same,ADCC activity against ACHN,ACHN,≥ 14%
same,ADCC activity against T24,T24,≥ 18%
same,ADCC activity against SW756,SW756,≥ 16%
same,ADCC activity against A549,A549,≥ 24%
same,ADCC activity against KYSE180,KYSE180,≥ 22%
same,ADCC activity against Ramos,Ramos,≥ 10%
same,ADCC activity against AML5,AML5,≥ 10%
same,ADCC activity against T98G,T98G,≥ 12%
same,ADCC activity against MNK28,MNK28,≥ 15%
same,ADCC activity against U373,U373,≥ 16%
same,percentage of enhancement in fluorescence intensity versus control antibody,CAPRIN-1 protein; MCF-7 not treated with any antitumor agent,32%
same,percentage of enhancement in fluorescence intensity versus control antibody,CAPRIN-1 protein; MCF-7 treated with the antitumor agent at 50% inhibitory concentration for 2 days,32%
